Measured values reported in publication PMC4425550 (Nature medicine, 2015).
Where no end group is shown, it is not given here. The star is where a group is joined. Biotin = O=C1N[C@H]2[C@H](CS[C@H]2CCCCC(=O)*)N1

Key:
SPHK1/2 = test: T cell transmigration with SPHK1/2 inhibitor; format: cell-based, human; conditions: 5 μM on endothelial cells, 30 min 37°C, washed, n=3
αLβ2 (LFA-1) = test: LFA-1 activation epitope; format: cell-based, human; conditions: S1P 10 µM after CXCL10 80 ng/ml, n=4
[1] = system: S1PR1 on memory T cells (CD3+CD45RO+); test: S1PR1 surface expression on memory T cells on ICAM-1; format: cell-based, human
[2] = system: S1P receptor on T cells; stimulated endothelial cells; test: T cell transmigration with exogenous S1P, B cell depleted PBL; format: cell-based, human
SPHK1 = test: T cell transmigration with SPHK1 specific inhibitor; format: cell-based, human; conditions: 5 μM on endothelial cells, 30 min 37°C, washed, n=3
S1P receptor = test: T cell transmigration with S1P receptor antagonist; format: cell-based, human; conditions: W146 10 μM, 30 min, washed; n=3–7
[3] = system: TNF-α&IFN-γ treated HUVEC; test: PBL trans-endothelial migration, static, HUVEC; format: cell-based, human
B cells = conditions: T1D and rheumatoid arthritis; cited from earlier work
[4] = system: lymphocytes from individuals with rheumatoid arthritis; endothelial cells; test: Ex vivo T cell transmigration, individuals with rheumatoid arthritis; format: cell-based, human; conditions: adiponectin 15 μg/ml or PEPITEM 10 ng/ml, n=7–8
[5] = system: endothelial cells (TNF-α and IFN-γ stimulated); format: cell-based, human
HDMEC = test: PBL transmigration across HDMEC, static; format: cell-based, human; conditions: TNF-α&IFN-γ stimulated HDMEC, n=3–4
[6] = system: TNF-α&IFN-γ stimulated endothelial cells; test: PBL adhesion; format: cell-based, human; conditions: adiponectin or PEPITEM
[7] = system: TNF-α&IFN-γ treated HUVEC; test: PBL trans-endothelial migration under flow; conditions: adiponectin pre-treated PBL, n=6
[8] = system: lymphocytes from individuals with T1D; endothelial cells; test: Ex vivo T cell transmigration, individuals with type-1-diabetes; conditions: adiponectin 15 μg/ml or PEPITEM 10 ng/ml, n=9–22
[9] = system: TNF-α&IFN-γ stimulated HUVEC; test: Gene expression of adhesion molecules and chemokines in HUVEC, real-time PCR; format: cell-based, human; conditions: TNF-α and IFN-γ stimulated endothelial cells
[10] = system: α4β1, αLβ2, CXCR3, DP-2 on PBL; test: Expression/function of integrins, CXCR3 and DP-2 on PBL, flow cytometry; format: cell-based, human; conditions: adiponectin 15 μg/ml, n=3
recombinant CDH15-Fc = molecular target: T1, recombinant CDH15-Fc (UniProt P55291 61-606); test: SPR
T1 sequence (looked up): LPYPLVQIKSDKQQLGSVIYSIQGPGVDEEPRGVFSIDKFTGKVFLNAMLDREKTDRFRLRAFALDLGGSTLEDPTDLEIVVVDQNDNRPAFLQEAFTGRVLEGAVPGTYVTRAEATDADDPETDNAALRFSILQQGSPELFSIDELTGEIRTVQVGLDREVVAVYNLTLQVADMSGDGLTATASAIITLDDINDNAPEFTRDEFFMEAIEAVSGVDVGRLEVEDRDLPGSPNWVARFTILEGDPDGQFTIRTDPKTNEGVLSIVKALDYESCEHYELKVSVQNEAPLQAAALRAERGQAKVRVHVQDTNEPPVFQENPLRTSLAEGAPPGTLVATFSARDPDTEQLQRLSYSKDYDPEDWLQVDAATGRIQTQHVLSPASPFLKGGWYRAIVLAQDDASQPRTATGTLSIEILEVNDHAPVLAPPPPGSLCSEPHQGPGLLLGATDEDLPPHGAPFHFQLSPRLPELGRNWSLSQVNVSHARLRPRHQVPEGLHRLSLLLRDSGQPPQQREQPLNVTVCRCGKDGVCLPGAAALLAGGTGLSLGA

CCCCCCCCCCCCC/C=C/[C@@H](O)[C@H](CO)N(C)C [N,N-Dimethylsphingosine]
ability of PEPITEM to inhibit T cell migration, SPHK1/2 inhibitor (SPHK1/2): abolished the ability of PEPITEM to inhibit T cell migration

CCCCCCCCCCCCC/C=C/[C@@H](O)[C@@H](N)COP(=O)(O)O [S1P, Sphingosine-1-phosphate]
affinity of LFA-1, binding to ICAM-1 (αLβ2 (LFA-1)): down-regulates the affinity
surface S1PR1 in the presence of exogenous S1P ([1]; CXCL10 80 ng/ml + S1P 10 μM, n=4): high expression was maintained
T cell migration on adding exogenous S1P ([2]; S1P 0.0001 to 100 μM, 30 min, purified T cells / B cell depleted PBL, n=3–6): mimicked dose-dependently
T cell transmigration at total circulating S1P concentration ([2]; S1P ≈0.2 μM): inhibited T cell transmigration efficiently

CCCCCCCCCCCCCC#CC(=O)[C@@H]1COC(C)(C)N1C(=O)OC(C)(C)C [SPHK1 inhibitor, 2,2-dimethyl-4S-(1-oxo-2-hexadecyn-1-yl)-1,1-dimethylester-3-oxazolidinecarboxylic acid]
ability of PEPITEM to inhibit T cell migration, SPHK1 inhibitor (SPHK1): abolished the ability of PEPITEM to inhibit T cell migration

CCCCCCc1cccc(NC(=O)[C@H](N)CCP(=O)(O)O)c1 [W146]
T cell migration in the presence of adiponectin and PEPITEM with S1P receptor antagonist (S1P receptor): released T cells from the inhibitory effects of both adiponectin and PEPITEM

CXCL10: chemokine
surface S1PR1 on memory T cells on ICAM-1 ([1]; CXCL10 80 ng/ml, n=6): rapid up-regulation of surface S1PR1

PEPITEM with a biotin conjugate on the N-terminus: PEPITEM with a biotin conjugate on the N-terminus (Biotin-SVTEQGAELSNEER)
efficacy in functional migration assay [3]: full efficacy

rituximab: monoclonal antibody, B cell depletion
clinical effect of B cell depletion (B cells): beneficial effects

B1: adiponectin: circulating adipokine (protein, UniProt Q15848 19-244, looked up)
Adiponectin: ETTTQGPGVLLPLPKGACTGWMAGIPGHPGHNGAPGRDGRDGTPGEKGEKGDPGLIGPKGDIGETGVPGAEGPRGFPGIQGRKGEPGEGAYVYRSAFSVGLETYVTIPNMPIRFTKIFYNQQNHYDGSTGKFHCNIPGLYYFAYHITVYMKDVKVSLFKKDKAMLFTYDQYQENNVDQASGSVLLHLEVGDQVWLQVYGEGERNGLYADNDNDSTFTGFLLYHDTN
T cell migration, individuals with rheumatoid arthritis [4]: no longer an inhibition of T cell migration
T cell migration with supernatants from adiponectin stimulated B cells ([5]; B cells 100,000, adiponectin 15 μg/ml 1 h): as effective as addition of B cells themselves
T cell migration after depleting B cells from PBL ([5]; adiponectin treated, n=3–7): T cells were released from the inhibitory effects of adiponectin
T cell migration after adding back purified B cells ([5]; adiponectin, n=3–7): could reconstitute the adiponectin-dependent inhibition of T cell migration
PBL transmigration on HDMEC (HDMEC): evident
PBL trans-endothelial migration ([3]; TNF-α and IFN-γ stimulated HUVEC, static): dose-dependently inhibited
EC50 for inhibition of PBL trans-endothelial migration (mass concentration) ([3]; adiponectin, PBL pre-treated 1 h and washed, TNF-α and IFN-γ stimulated, static): 0.94 µg/mL
firm adhesion of PBL (surface adherent cells) [6]: more cells were firmly adherent to the apical surface of the endothelium
PBL transmigration under flow [7]: effects of adiponectin on PBL migration were seen
T cell migration, individuals with T1D [8]: no longer an inhibition of T cell migration
gene expression of adhesion molecules and chemokines [9]: did not modulate
expression and/or function of integrins (α4β1, αLβ2), CXCR3, DP-2 on PBL [10]: did not alter

Biotin-SVTEQGAELSNEER [N-terminus biotinylated PEPITEM (PEPtide Inhibitor of Trans-Endothelial Migration)]
Kd (recombinant CDH15-Fc): 109 µM
